Columns and labels:
Experiment in all cases: UV peptide exchange; HLA class I ELISA
[1] = molecular target: T1, HLA-A*01:01 (human, biotinylated heavy chain)
T1 construct: Conditional HLA class I complex (heavy chain + B2M) first held by a UV-labile peptide; the tested peptide is exchanged in after UV cleavage
Experimental: (§1) The UV control represented UV-irradiation of conditional HLA class I complex in the absence of a rescue peptide.
(§2) The HLA class I ELISA is an enzyme immunoassay based on the detection of beta2-microglobulin (B2M) of (peptide-stabilized) HLA class I complexes. To this end streptavidin was bound onto polystyrene microtiter wells. […] Subsequently, horseradish peroxidase (HRP)-conjugated antibody to human B2M was added. […] In the latter case B2M was removed during the washing step. After removal of non-bound HRP conjugate by washing, a substrate solution was added to the wells. A coloured product formed in proportion to the amount of intact HLA complex present in the samples. After the reaction was terminated by the addition of a stop solution, absorbance was measured in a microtiter plate reader.

[2] = molecular target: T2, HLA-A*02:01 (human, biotinylated heavy chain)
T2 construct: Conditional HLA class I complex as for m1
Experimental: as §1, §2

[3] = molecular target: T3, HLA-A*24:02 (human, biotinylated heavy chain)
T3 construct: Conditional HLA class I complex as for m1
Experimental: as §1, §2

[4] = molecular target: T4, HLA-B*07:02 (human, biotinylated heavy chain)
T4 construct: Conditional HLA class I complex as for m1
Experimental: as §1, §2

[5] = molecular target: T5, HLA-B*08:01 (human, biotinylated heavy chain)
T5 construct: Conditional HLA class I complex as for m1
Experimental: as §1, §2

[6] = molecular target: T6, HLA-B*27:05 (human, biotinylated heavy chain)
T6 construct: Conditional HLA class I complex as for m1
Experimental: as §2

[7] = molecular target: T1, HLA-A*01:01; remark: listed apart in the source
Experimental: as §2
(§3) Higher percentages correspond to stronger binding to the HLA allele.

[8] = molecular target: T2, HLA-A*02:01; remark: listed apart in the source
Experimental: as §2, §3

[9] = molecular target: T7, HLA-A*03:01 (human, biotinylated heavy chain)
T7 construct: Conditional HLA class I complex as for m1
Experimental: as §2, §3

[10] = molecular target: T3, HLA-A*24:02; remark: listed apart in the source
Experimental: as §2, §3

[11] = molecular target: T5, HLA-B*08:01; remark: listed apart in the source
Experimental: as §2, §3

[12] = molecular target: T4, HLA-B*07:02; remark: listed apart in the source
Experimental: as §2, §3

Binder	Average % [1]	Exch I (%) [1]	Exch II (%) [1]	Average % [2]	Exch I (%) [2]	Exch II (%) [2]	Average % [3]	Exch I (%) [3]	Exch II (%) [3]	Average % [4]	Exch I (%) [4]	Exch II (%) [4]	Average % [5]	Exch I (%) [5]	Exch II (%) [5]	Average % [6]	Exch I (%) [6]	Exch II (%) [6]	exchange rate with Pos [7]	exchange rate with Pos [9]	other results
LYHREKQLI [Peptide 5, 9-mer LYHREKQLI derived from P22 (SEQ ID NO: 1003)]	6%	6.2%	5.8%	11.8%	11.3%	12.3%	17.8%	17.5%	18.1%	10.8%	11.5%	10%	7.7%	7.5%	7.9%	17.4%	19.3%	15.4%	–	–	–
IAMDSAITL [Peptide 2, 9-mer IAMDSAITL derived from FUS1 (SEQ ID NO: 1001)]	6.9%	6.7%	7%	85.8%	81.1%	90.5%	7%	6.7%	7.3%	67.1%	68.7%	65.4%	7.9%	7.6%	8.1%	9.3%	10.1%	8.5%	–	–	–
LIAMDSAIT [Peptide 10, 9-mer LIAMDSAIT derived from P22 (SEQ ID NO: 1003)]	5.8%	6.2%	5.4%	6.9%	6.7%	7.1%	4.8%	4.6%	5.1%	9.5%	9.8%	9.2%	7.3%	6.9%	7.7%	7.3%	8.5%	6.1%	–	–	–
SLYHREKQL [Peptide 4, 9-mer SLYHREKQL derived from P22 (SEQ ID NO: 1003)]	6.6%	6.7%	6.4%	87%	82.8%	91.2%	6.6%	6.5%	6.6%	10.8%	10.9%	10.8%	20.7%	20.3%	21.1%	16.5%	19%	14%	–	–	–
GVLRRLLCR (Synthetic 9-mer) [P37 9-mer GVLRRLLCR (TSTD1-F11R fusion)]	–	–	–	–	–	–	–	–	–	–	–	–	–	–	–	–	–	–	1.4%	6.4%	exchange rate with Pos [8]: 12.5%; exchange rate with Pos [10]: -0.1%; exchange rate with Pos [11]: 3.3%
NMVENGCYL (Synthetic 9-mer) [P59 9-mer NMVENGCYL (FOXA1 F254V)]	–	–	–	–	–	–	–	–	–	–	–	–	–	–	–	–	–	–	2.2%	4.5%	exchange rate with Pos [8]: 11.9%; exchange rate with Pos [10]: -0.5%; exchange rate with Pos [12]: 7.5%; exchange rate with Pos [11]: 5.5%
SLIAMDSAI [Peptide 3, 9-mer SLIAMDSAI derived from FUS1 (SEQ ID NO: 1001)]	6.9%	6.9%	6.9%	58.5%	57.3%	59.7%	5.5%	5.3%	5.7%	11.1%	10.9%	11.3%	7.3%	7.5%	7.1%	6.3%	7.1%	5.5%	–	–	–
FFKRAAEGF (Synthetic 9-mer) [P77 9-mer FFKRAAEGF (AR-V3)]	–	–	–	–	–	–	–	–	–	–	–	–	–	–	–	–	–	–	1.9%	2.8%	exchange rate with Pos [10]: 1.7%; exchange rate with Pos [12]: 14.2%; exchange rate with Pos [11]: 3.4%
HREKQLIAM [Peptide 7, 9-mer HREKQLIAM derived from P22 (SEQ ID NO: 1003)]	5.4%	5.5%	5.2%	8.2%	7.9%	8.6%	5.5%	5.4%	5.6%	12.6%	12.6%	12.6%	9.5%	9.5%	9.5%	30.9%	32.3%	29.5%	–	–	–
YHREKQLIA [Peptide 6, 9-mer YHREKQLIA derived from P22 (SEQ ID NO: 1003)]	5.8%	6.2%	5.5%	17.2%	16.3%	18.1%	6.5%	6.6%	6.3%	10.8%	11.1%	10.5%	8.3%	8.3%	8.4%	13.1%	14.4%	11.7%	–	–	–
STRRAVRRM (Synthetic 9-mer) [P16 9-mer STRRAVRRM (MSMB-NCOA4 fusion)]	–	–	–	–	–	–	–	–	–	–	–	–	–	–	–	–	–	–	5.5%	6.1%	exchange rate with Pos [8]: 10.4%; exchange rate with Pos [10]: 0.8%; exchange rate with Pos [12]: 13.7%; exchange rate with Pos [11]: 6.2%
AMDSAITLW [Peptide 1, 9-mer AMDSAITLW derived from FUS1 (SEQ ID NO: 1001)]	4.6%	4.7%	4.6%	8.6%	8%	9.2%	5.5%	5.1%	6%	9.7%	10%	9.4%	7%	6.6%	7.3%	9.8%	10.3%	9.3%	–	–	–
FPVGAEGTF (Synthetic 9-mer) [P27 9-mer FPVGAEGTF (FAM126B-ORC2 fusion)]	–	–	–	–	–	–	–	–	–	–	–	–	–	–	–	–	–	–	4.8%	4.5%	exchange rate with Pos [8]: 10%; exchange rate with Pos [10]: 0.7%; exchange rate with Pos [12]: 7.8%; exchange rate with Pos [11]: 6.4%
NSKMALNSL (Synthetic 9-mer) [P35 9-mer NSKMALNSL (TMPRSS2-ERG fusion)]	–	–	–	–	–	–	–	–	–	–	–	–	–	–	–	–	–	–	2.5%	4.2%	exchange rate with Pos [8]: 12.5%; exchange rate with Pos [10]: 0.2%; exchange rate with Pos [12]: 12.1%; exchange rate with Pos [11]: 13.7%
KQLIAMDSA [Peptide 9, 9-mer KQLIAMDSA derived from P22 (SEQ ID NO: 1003)]	6.3%	6.3%	6.3%	7.2%	6.9%	7.6%	5%	4.6%	5.3%	10.3%	10.5%	10.1%	7.7%	7.1%	8.3%	10.8%	11.8%	9.8%	–	–	–
IQYSCMGLM (Synthetic 9-mer) [P50 9-mer IQYSCMGLM (AR W742C)]	–	–	–	–	–	–	–	–	–	–	–	–	–	–	–	–	–	–	2.3%	5.5%	exchange rate with Pos [8]: 8.8%; exchange rate with Pos [10]: 0.1%; exchange rate with Pos [12]: 10.4%; exchange rate with Pos [11]: 4.7%
